Measurements reported in patent US20250297002A1 (SHANGHAI SINOBAY BIOTECHNOLOGY, published 2025).

B1: Hu004-68-αCD3-BITE (bispecific antibody)
chain: EVQLVESGGGLVQPGGSLRLSCAASGFTFSGYGMSWVRQAPGKGLEWVATITSGGTYTYYPDSVKGRFTISRDNAKNSLYLQMNSLRAEDTAVYYCARSLAGNAMDYWGQGTLVTVSSGGGGSGGGGSGGGGSQVQLVQSGAEVKKPGASVKVSCKASGYTFTRYTMHWVRQAPGQGLEWMGYINPSRGYTNYNQKFKDRVTITADKSTSTAYMELSSLRSEDTAVYYCARYYDDHYCLDYWGQGTTVTVSSGGGGSGGGGSGGGGSEIVLTQSPATLSLSPGERATLSCSASSSVSYMNWYQQKPGKAPKRLIYDTSKLASGVPSRFSGSGSGTDFTLTINSLEAEDAATYYCQQWSSNPFTFGQGTKVEIKGGGGSGGGGSGGGGSEIVLTQSPVTLSVSPGERATLSCRASQGVTSNLAWYQQKPGQAPRLLIYGASTRATGVPARFSGSGSGTEFTLTISSLQSEDFAVYYCQHRGTFGQGTKVDIK
B2: Hu004-101-αCD3-BITE (bispecific antibody)
chain: EVQLVESGGGLVQPGGSLRLSCAASGFTFSGYGMSWVRQAPGKGLEWVATITSGGTYTYYPDSVKGRFTISRDNAKNSLYLQMNSLRAEDTAVYYCARSLAGNAMDYWGQGTLVTVSSGGGGSGGGGSGGGGSQVQLVQSGAEVKKPGASVKVSCKASGYTFTRYTMHWVRQAPGQGLEWMGYINPSRGYTNYNQKFKDRVTITADKSTSTAYMELSSLRSEDTAVYYCARYYDDHYCLDYWGQGTTVTVSSGGGGSGGGGSGGGGSEIVLTQSPATLSLSPGERATLSCSASSSVSYMNWYQQKPGKAPKRLIYDTSKLASGVPSRFSGSGSGTDFTLTINSLEAEDAATYYCQQWSSNPFTFGQGTKVEIKGGGGSGGGGSGGGGSDIQMTQSPSTLSASVGDRVTITCRASQSISNWLAWYQQKPGEAPKLLIYKASNLESGVPSRFSGSGSGTEFTLTISSLQPDDFATYYCQQFGTFGQGTKVEIK

Target: human CD47 (human, UniProt Q08722 19-323)
Assay: cell-based or functional assay

| Binder | tumor killing activity on SK-OV3 cells with T cells (luciferase), compared with clone No. 100 | tumor killing activity on SK-OV3 cells with T cells (luciferase), compared with the T cell control group | tumor killing activity on SK-OV3 cells with T cells (luciferase), compared with the positive control antibody (B6H12-αCD3-BITE) | tumor killing activity on NCI-H292 cells with T cells (luciferase), compared with clone No. 100 | tumor killing activity on NCI-H292 cells with T cells (luciferase), compared with the T cell control group | tumor killing activity on NCI-H292 cells with T cells (luciferase), compared with the positive control antibody (B6H12-αCD3-BITE) |
| --- | --- | --- | --- | --- | --- | --- |
| B1 | 2 fold | 3.5 fold | 1.5 fold | – | – | – |
| B2 | – | – | – | 1.2 fold | 4 fold | 1.2 fold |
